From PMC4760375, “A dual phosphorylation switch controls 14-3-3-dependent cell surface expression of TASK-1” (Journal of Cell Science, 2016) come the findings set out here.

For one assay, the target named is T1, 14-3-3γ (Homo sapiens, UniProt P61981).
T1 construct: Open reading frames encoding human 14-3-3 proteins were inserted into the pMAL2Cx vector at EcoRI and HindIII restriction sites; made in house
T1 sequence (P61981 1-247): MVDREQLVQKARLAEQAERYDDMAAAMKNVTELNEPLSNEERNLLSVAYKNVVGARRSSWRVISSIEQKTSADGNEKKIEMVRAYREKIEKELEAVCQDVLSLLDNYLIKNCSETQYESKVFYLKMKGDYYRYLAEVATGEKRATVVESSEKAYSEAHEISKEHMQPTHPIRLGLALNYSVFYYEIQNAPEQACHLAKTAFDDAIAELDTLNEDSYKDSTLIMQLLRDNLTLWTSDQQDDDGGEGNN
The experiment in a line: Surface plasmon resonance, 14-3-3γ. In kind it is binding. Particulars: GST fusion captured by anti-GST antibody on chip, phosphorylated on-chip with PKA catalytic subunit; 150 mM NaCl, 20 mM HEPES, 0.005% Tween 20 pH 7.5, 20°C; equilibrium, sigmoidal dose-response fit; ±s.e.m., at least six repeats; read-out: Kd, SPR, 14-3-3γ. From the text:
(§1) In addition to fluorescence polarization, we used surface plasmon resonance (SPR) as a second, complementary approach to quantify the binding parameters for the TASK-3 C-terminus (Fig. 3, Table 1). […] We developed an on-chip phosphorylation protocol (Fig. 3A) where we first captured the GST fusion proteins on the chip surface with an antibody against GST (which was crosslinked at a high density to the metal surface) and then phosphorylated GST–TASK-3 with recombinantly expressed PKA catalytic subunit (also known as PRKACA; [Knape et al., 2015]). […] Consistent with the results of fluorescence polarization titration, no binding of 14-3-3 proteins was observed prior to on-chip phosphorylation, whereas all 14-3-3 isoforms did bind upon phosphorylation of the TASK-3 C-terminus (Fig. 3C) with equilibrium dissociation constants (Fig. 3D, Table 1) between 45±9 nM (14-3-3γ) to 742±29 nM (14-3-3σ). Depending on the 14-3-3 isoform, these values were very similar (14-3-3η and 14-3-3τ) or differed two- (14-3-3β) to fivefold (14-3-3ε, 14-3-3ζ and 14-3-3σ) from the values determined by fluorescence polarization (Fig. 2, Table 1). […]
(§2) Fig. 3. Affinities of the seven mammalian 14-3-3 isoforms for the phosphorylated TASK-3 C-terminus obtained by surface plasmon resonance are consistent with values obtained using fluorescence polarization. […]
Background: SPR reads the build-up and loss of mass on a sensor chip optically.

The target of another assay is T2, 14-3-3σ (Homo sapiens, UniProt P31947).
T2 construct: Open reading frames encoding human 14-3-3 proteins were inserted into the pMAL2Cx vector at EcoRI and HindIII restriction sites; made in house
T2 sequence (P31947 1-248): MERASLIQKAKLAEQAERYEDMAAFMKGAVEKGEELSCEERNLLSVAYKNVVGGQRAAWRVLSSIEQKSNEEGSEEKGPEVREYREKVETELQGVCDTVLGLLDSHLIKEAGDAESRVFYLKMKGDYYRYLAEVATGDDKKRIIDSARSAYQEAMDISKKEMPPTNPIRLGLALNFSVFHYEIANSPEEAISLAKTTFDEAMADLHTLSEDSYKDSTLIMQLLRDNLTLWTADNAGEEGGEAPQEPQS
The experiment in a line: Surface plasmon resonance, 14-3-3σ. The note with it: GST fusion captured by anti-GST antibody on chip, phosphorylated on-chip with PKA catalytic subunit; 150 mM NaCl, 20 mM HEPES, 0.005% Tween 20 pH 7.5, 20°C; equilibrium, sigmoidal dose-response fit; ±s.e.m., at least six repeats; read-out: Kd, SPR, 14-3-3σ. The format is binding.
Description: as §1, §2

Another assay deals with 14-3-3 proteins. Kind of assay: Surface plasmon resonance, statements across the 14-3-3 isoforms. Particulars: SPR, prior to on-chip phosphorylation. In kind it is binding, human.
Description: as §1, §2

No end group written: not given here.

What is called Kd is the free concentration of one partner at which half of the binding sites on the other are occupied at equilibrium, for simple one-to-one binding.

With “GST–TASK-3-CT15: Glutathione S-transferase fused to the TASK-3 C-terminal 15 residues, from E. coli, phosphorylated on-chip with PKA (SFTDHQRLMKRRKSV; also: GST fusion, end not given here, phosphorylated with PKA, site not given here)”, the Kd in the assay with 14-3-3γ is 45 ± 9 nM; with 14-3-3σ it was 742 ± 29 nM. Moreover, the “binding of 14-3-3 proteins (in words)” value in the assay with 14-3-3 proteins was “no binding”.
